According to paper PMC12003778:

Key:
[1] = biological target: human GLT25D1/COLGALT1 (wild type) (human) (UniProt Q8NBJ5); test: SEC-MALS
[2] = biological target: human GLT25D1/COLGALT1 (wild type) (human) (UniProt Q8NBJ5); test: SEC-SAXS
[3] = biological target: human GLT25D1/COLGALT1 (wild type) (human) (UniProt Q8NBJ5); test: mass photometry

Measured: stoichiometry N

human GLT25D1/COLGALT1 (wild type) (from UniProt Q8NBJ5 30-618) (enzyme)
2: all assays above
